Positions count from the first letter of the chain named.
Tests used:
[1] = target: T1, GFAP (glial fibrillary acidic protein) from normal human brain (human, UniProt P14136 1-432); test: competition ELISA in solution (Friguet method), GFAP in solution, GFAP-coated plate
T1 construct: Purchased protein purified from human brain; coated on ELISA plates and used in solution for the KD determination; also called hGFAP
Experimental: (§1) The binding affinity of VHHs was determined as described by Friguet et al., 1985. Briefly, various concentrations of GFAP were incubated in solution overnight at 4° C. with a known quantity of VHH until equilibrium was reached. The VHH concentration had been determined by preliminary ELISA calibrations. 100 μl of solution was transferred to a well of a microtiter plate previously coated with GFAP and was incubated for 20 min at 4° C. The plates were washed with PBS-Tween 0.1%. VHHs were detected with rabbit anti-His tag antibodies (eBiosciences, San Diego, Calif.) followed by adding β-galactosidase-conjugated goat anti-rabbit Igs (Biosys, Compiègne, France) and 4-methylumbelliferyl β-D galactoside (Sigma Aldrich, Saint-Quentin Fallavier, France). Fluorescence was read at 460 nm, after excitation at 355 nm. KD was estimated from the slope of the regression curve obtained by plotting the reciprocal of the fraction of bound antibody versus the reciprocal of the molar concentration of antigen.

[2] = target: T1, GFAP (glial fibrillary acidic protein) …; test: competition ELISA (Friguet method) after heating VHH at 75 C for 15 min and cooling at 4 C for 20 min
Experimental: as §1
The heat denaturation of VHH-E9 was adapted to the method described in Olichon et al., 2007. VHHs are re-suspended in PBS/NaCl 300 mM and are heated for 15 minutes at 75° C. then cooled down at 4° C. for 20 minutes. The binding affinity of VHHs was determined by ELISA as described in Example 2 above.

[3] = target: T2, murine GFAP (in murine brain extracts and mouse brain astrocytes) (murine, UniProt P03995 1-430); test: Western blot of murine brain extracts
T2 construct: Endogenous intracellular protein; identified on blots by the 46 kDa band size and in tissue by astrocyte labelling; also called 46 Kda band
Experimental: Murine brain proteins (300 mg) were extracted in a potter with 600 μl of NuPage LDS sample buffer (Invitrogen) and kept for […] at 70° C. An aliquot was diluted 1:10 (v/v) with the same sample buffer then treated at 70° C. for 10 min. Following separation by polyacrylamide gel electrophoresis (PAGE) using NuPAGE Novex 4-12% Bis-tris gel (Invitrogen), semi-dry transfer onto Hybond-C (Amersham) and western blotting were carried out using the Xcell II blot module (Invitrogen). Prior to the immunochemical reaction, membranes were blocked in a 4% skimmed milk solution. […] Finally, peroxidase activity was visualized using a chemiluminescent kit (Amersham).
The specificity of the different VHHs was tested by ELISA and by Western blot. All the VHHs were specific for GFAP by ELISA (FIG. 5) and could detect at least 40 ng of protein.

[4] = target: T1, GFAP (glial fibrillary acidic protein) …; test: competition ELISA (Friguet method), GFAP

T2 sequence (P03995 whole entry): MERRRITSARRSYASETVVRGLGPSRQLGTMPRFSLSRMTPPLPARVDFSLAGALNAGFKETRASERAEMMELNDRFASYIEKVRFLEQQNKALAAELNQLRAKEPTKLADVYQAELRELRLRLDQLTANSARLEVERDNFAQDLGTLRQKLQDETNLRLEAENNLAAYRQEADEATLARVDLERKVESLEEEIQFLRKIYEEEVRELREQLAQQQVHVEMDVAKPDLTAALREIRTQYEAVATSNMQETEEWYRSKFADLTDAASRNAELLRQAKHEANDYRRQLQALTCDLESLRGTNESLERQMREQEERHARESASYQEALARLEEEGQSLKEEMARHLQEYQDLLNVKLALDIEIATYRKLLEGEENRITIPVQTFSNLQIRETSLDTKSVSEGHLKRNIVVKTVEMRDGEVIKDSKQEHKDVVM
T1 sequence (P14136 whole entry): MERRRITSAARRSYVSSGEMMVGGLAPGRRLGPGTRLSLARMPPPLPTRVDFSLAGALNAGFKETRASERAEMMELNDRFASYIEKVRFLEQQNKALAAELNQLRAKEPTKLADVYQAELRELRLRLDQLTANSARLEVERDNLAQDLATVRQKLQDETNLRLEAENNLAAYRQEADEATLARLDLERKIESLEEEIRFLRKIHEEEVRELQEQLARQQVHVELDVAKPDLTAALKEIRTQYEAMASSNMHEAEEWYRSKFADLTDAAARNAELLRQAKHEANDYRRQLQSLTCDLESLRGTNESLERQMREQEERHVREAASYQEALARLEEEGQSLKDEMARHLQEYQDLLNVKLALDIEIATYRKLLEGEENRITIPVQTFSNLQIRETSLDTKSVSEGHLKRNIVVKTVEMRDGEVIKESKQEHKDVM

B1: VHH-E9 (VHH)
VHH: DVQLQVSGGGSVQPGGSLRLSCAASGFTFSNYAMYWLRQAPGKGIEWVSRIGPGGSHTEYADSVKGRFTISRDNAKNTLSLQMNSLKPEDTAVYYCAITQQGSGRGQGTQVTVSS
notes: Alpaca VHH selected by ribosome display against human GFAP; expressed in E. coli periplasm from pET22 with a His-tag and purified by IMAC; same molecule; also called anti-GFAP VHH-E9; native VHH-E9; not shown: His-tag (His6) from pET22 expression
With B1 the Kd [1] was 5.6 nM, the Kd [2] was 3.8 nM and the binding result [3] was “binds”.

B2: VHH-E3 (VHH)
VHH: B1 VHH with S25P, T69A, V93A, Q107R
notes: Alpaca VHH selected by ribosome display against human GFAP; expressed in E. coli periplasm from pET22 with a His-tag and purified by IMAC; also called anti-GFAP VHH-E3; not shown: His-tag from pET22 expression
B2: binds [3].

B3: VHH-E9 SS-free (VHH, not shown: small tags and cut ends)
VHH: DVQLQVSGGGSVQPGGSLRLSSAASGFTFSNYAMYWLRQAPGKGIEWVSRIGPGGSHTEYADSVKGRFTISRDNAKNTLSLQMNSLKPEDTAVYYSAITQQGSGRGQGTQVTVSSAAALEHHHHHH
notes: VHH-E9 in which the disulfide-forming cysteines Cys 22 and Cys 96 were replaced by serine by site-directed mutagenesis; also called cysteine-free derivative of VHH-E9
With B3 the Kd [4] was 12 nM and the “fold reduction of affinity against native VHH-E9” value [4] was 2 fold.

B4: VHH-A10 (VHH)
VHH: B3 VHH with Q5R, V6A, S11L, S22C, S96C, G108E
notes: Alpaca VHH selected by ribosome display against human GFAP; expressed in E. coli periplasm from pET22 with a His-tag and purified by IMAC; also called anti-GFAP VHH-A10; not shown: His-tag from pET22 expression
In the case of B4, the Kd [1] is reported as 3.1 nM and the binding result [3] is reported as “binds”.

Source: patent publication US20100021384A1 (INSTITUT PASTEUR, published 2010)
